Measurements as given in the supplement of paper PMC10065799, “High-throughput profiling of sequence recognition by tyrosine kinases and SH2 domains using bacterial peptide display” (eLife, 2023).

Target: Hck (UniProt P08631)
Assay: phosphorylation enrichment, bacterial display (enrichment ratio); higher = better substrate or ligand; peptides without Tyr show the background
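Note: 11-residue human phosphosite peptides and single-mutation variants displayed on the E. coli surface, counted by deep sequencing, each peptide's frequency after selection divided by its frequency in the unselected input library; frequency after pTyr selection over input frequency; kinase dosed for 20-30% of maximal phosphorylation in three min.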

Chain of Hck (P08631 whole entry, looked up): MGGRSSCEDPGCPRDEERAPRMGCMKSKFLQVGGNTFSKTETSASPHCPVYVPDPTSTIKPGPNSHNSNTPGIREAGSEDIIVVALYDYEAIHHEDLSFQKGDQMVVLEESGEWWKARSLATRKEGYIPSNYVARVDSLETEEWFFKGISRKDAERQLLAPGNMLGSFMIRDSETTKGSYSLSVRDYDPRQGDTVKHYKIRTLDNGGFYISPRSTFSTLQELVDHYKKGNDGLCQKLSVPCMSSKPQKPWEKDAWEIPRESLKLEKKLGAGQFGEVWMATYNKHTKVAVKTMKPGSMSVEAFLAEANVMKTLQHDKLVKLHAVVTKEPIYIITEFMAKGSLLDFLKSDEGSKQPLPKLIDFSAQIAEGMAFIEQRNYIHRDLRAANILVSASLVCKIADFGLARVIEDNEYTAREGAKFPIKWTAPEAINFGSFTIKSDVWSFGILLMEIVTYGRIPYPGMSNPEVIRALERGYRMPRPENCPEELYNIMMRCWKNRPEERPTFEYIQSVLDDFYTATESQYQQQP

| Sequence | phosphorylation enrichment |
| --- | --- |
| GITTGYLVLKE [DNMT3B_Y588_A585T] | 0.438 |
| RIVEIYSRRLQ [GCH1_Y175] | 1.02 |
| VASMFYTLVIP [OR8K3_Y277_I275M] | 0.667 |
| RNNTEYVRDIG [MUSK_Y577_I575T] | 0.428 |
| EEHIPCTHMNG [INSR_Y1361_Y1361C] | 0.435 |
| QMRLKYSQSDL [SMC1A_Y714] | 0.369 |
| PDMHSYVVRFN [GRIN2D_Y732_M733V_YF] | 0.431 |
| FPIDHYLGKEM [G6PD_Y202_R198P_YF] | 0.68 |
| KGLMPYGQPRP [SRRT_Y798_Q793K] | 0.325 |
| LEAFQYIGESQ [MSH2_Y856_E853A] | 0.413 |
| FSDQVYRQHRK [TH_Y230_R233H] | 0.447 |
| ADRNHYRRYPR [YBX1_Y145] | 0.55 |
| EVRTQYEEIAQ [KRT76_Y361_A359T] | 0.576 |
| FLEKFYKFGSR [NNMT_Y25_YF] | 0.341 |
| FEPDAYFDLDQ [ELP5_Y302_D303Y_YF] | 0.622 |
| VVGMLYVGGLP [LAMA2_Y2886] | 0.454 |
| SVETPYVSVTF [NDRG2_Y47_G48V] | 0.662 |

| Sequence | phosphorylation enrichment |
| --- | --- |
| LLVVLYKYRCF [PSEN1_Y154_Y159F] | 0.825 |
| DTQNSYGCATS [TSC1_Y304] | 0.498 |
| AESPEYVHMFT [FAM111A_Y511_YF] | 0.629 |
| IKELTYQTEED [MYH7_Y1852] | 0.604 |
| SHLSAFPALEG [CD5_Y465_Y465F] | 0.402 |
| MPLTEYLKRIK [CNGB3_Y200] | 0.365 |
| SEEVTYATLTF [CLEC12B_Y7] | 5.06 |
| SSAAGYACLAF [MVD_Y131_YF] | 0.585 |
| LSNPAYRLLLA [DDR1_Y513] | 1.14 |
| TLLERYGMTEI [ACSF3_Y355] | 0.392 |
| CTTIHCNFMCN [TP53_Y234_Y234C_YF] | 0.446 |
| NCFKYYMSDDI [ATRX_Y204] | 0.548 |
| SECCKYKIDNL [OSMR_Y689_P694L] | 0.428 |
| PVGVLYEVKVF [PTS_Y128_K129E_YF] | 0.986 |
| KLKEKYQKDIA [HMGB1_Y155_E156Q] | 0.487 |
| AKVKPYINGTS [IBTK_Y1064_V1065I] | 0.359 |

Target: Jak2 (UniProt O60674)
Assay: as above

Chain of Jak2 (O60674 whole entry, looked up): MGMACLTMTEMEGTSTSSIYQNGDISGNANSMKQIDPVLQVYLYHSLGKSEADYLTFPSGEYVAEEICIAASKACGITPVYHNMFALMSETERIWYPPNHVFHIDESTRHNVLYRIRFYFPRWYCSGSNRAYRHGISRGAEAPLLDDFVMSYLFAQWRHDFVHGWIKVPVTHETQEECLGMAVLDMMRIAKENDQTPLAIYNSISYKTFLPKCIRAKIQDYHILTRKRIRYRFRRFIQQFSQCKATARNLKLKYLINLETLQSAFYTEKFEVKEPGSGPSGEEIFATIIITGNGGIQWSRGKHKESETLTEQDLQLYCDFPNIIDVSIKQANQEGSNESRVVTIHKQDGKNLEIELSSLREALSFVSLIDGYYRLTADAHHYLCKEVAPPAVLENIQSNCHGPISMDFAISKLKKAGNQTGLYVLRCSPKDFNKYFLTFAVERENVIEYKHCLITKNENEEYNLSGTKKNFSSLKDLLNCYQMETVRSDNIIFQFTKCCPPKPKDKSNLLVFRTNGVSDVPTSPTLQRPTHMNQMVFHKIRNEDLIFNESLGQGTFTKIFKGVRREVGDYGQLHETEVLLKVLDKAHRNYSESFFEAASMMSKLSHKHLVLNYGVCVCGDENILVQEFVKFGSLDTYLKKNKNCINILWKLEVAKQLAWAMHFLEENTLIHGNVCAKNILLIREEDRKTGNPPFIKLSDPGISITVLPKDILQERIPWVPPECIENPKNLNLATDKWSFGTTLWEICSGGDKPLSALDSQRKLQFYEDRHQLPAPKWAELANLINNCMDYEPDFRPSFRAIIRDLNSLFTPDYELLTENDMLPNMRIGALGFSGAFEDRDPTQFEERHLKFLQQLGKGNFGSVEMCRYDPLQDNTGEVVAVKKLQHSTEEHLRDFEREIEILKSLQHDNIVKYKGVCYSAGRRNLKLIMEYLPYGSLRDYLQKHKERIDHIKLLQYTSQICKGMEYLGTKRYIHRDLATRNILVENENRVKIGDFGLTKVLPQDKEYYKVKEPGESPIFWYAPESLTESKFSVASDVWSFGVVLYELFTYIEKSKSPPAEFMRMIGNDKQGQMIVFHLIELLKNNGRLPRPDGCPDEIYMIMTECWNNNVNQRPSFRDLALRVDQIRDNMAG

| Sequence | phosphorylation enrichment |
| --- | --- |
| GITTGYLVLKE [DNMT3B_Y588_A585T] | 0.616 |
| RIVEIYSRRLQ [GCH1_Y175] | 0.794 |
| VASMFYTLVIP [OR8K3_Y277_I275M] | 1.51 |
| RNNTEYVRDIG [MUSK_Y577_I575T] | 0.364 |
| EEHIPCTHMNG [INSR_Y1361_Y1361C] | 1.03 |
| QMRLKYSQSDL [SMC1A_Y714] | 0.611 |
| PDMHSYVVRFN [GRIN2D_Y732_M733V_YF] | 1.81 |
| FPIDHYLGKEM [G6PD_Y202_R198P_YF] | 0.685 |
| KGLMPYGQPRP [SRRT_Y798_Q793K] | 0.426 |
| LEAFQYIGESQ [MSH2_Y856_E853A] | 1.46 |
| FSDQVYRQHRK [TH_Y230_R233H] | 0.529 |
| ADRNHYRRYPR [YBX1_Y145] | 0.585 |
| EVRTQYEEIAQ [KRT76_Y361_A359T] | 0.919 |
| FLEKFYKFGSR [NNMT_Y25_YF] | 0.679 |
| FEPDAYFDLDQ [ELP5_Y302_D303Y_YF] | 1.82 |
| VVGMLYVGGLP [LAMA2_Y2886] | 1.08 |
| SVETPYVSVTF [NDRG2_Y47_G48V] | 1.1 |

| Sequence | phosphorylation enrichment |
| --- | --- |
| LLVVLYKYRCF [PSEN1_Y154_Y159F] | 2.16 |
| DTQNSYGCATS [TSC1_Y304] | 0.489 |
| AESPEYVHMFT [FAM111A_Y511_YF] | 1.11 |
| IKELTYQTEED [MYH7_Y1852] | 1.1 |
| SHLSAFPALEG [CD5_Y465_Y465F] | 0.5 |
| MPLTEYLKRIK [CNGB3_Y200] | 0.613 |
| SEEVTYATLTF [CLEC12B_Y7] | 1.38 |
| SSAAGYACLAF [MVD_Y131_YF] | 0.919 |
| LSNPAYRLLLA [DDR1_Y513] | 1.99 |
| TLLERYGMTEI [ACSF3_Y355] | 0.565 |
| CTTIHCNFMCN [TP53_Y234_Y234C_YF] | 0.862 |
| NCFKYYMSDDI [ATRX_Y204] | 1.32 |
| SECCKYKIDNL [OSMR_Y689_P694L] | 0.823 |
| PVGVLYEVKVF [PTS_Y128_K129E_YF] | 2.08 |
| KLKEKYQKDIA [HMGB1_Y155_E156Q] | 1.47 |
| AKVKPYINGTS [IBTK_Y1064_V1065I] | 0.369 |

Target: MERTK (UniProt Q12866)
Assay: as above

Chain of MERTK (Q12866 whole entry, looked up): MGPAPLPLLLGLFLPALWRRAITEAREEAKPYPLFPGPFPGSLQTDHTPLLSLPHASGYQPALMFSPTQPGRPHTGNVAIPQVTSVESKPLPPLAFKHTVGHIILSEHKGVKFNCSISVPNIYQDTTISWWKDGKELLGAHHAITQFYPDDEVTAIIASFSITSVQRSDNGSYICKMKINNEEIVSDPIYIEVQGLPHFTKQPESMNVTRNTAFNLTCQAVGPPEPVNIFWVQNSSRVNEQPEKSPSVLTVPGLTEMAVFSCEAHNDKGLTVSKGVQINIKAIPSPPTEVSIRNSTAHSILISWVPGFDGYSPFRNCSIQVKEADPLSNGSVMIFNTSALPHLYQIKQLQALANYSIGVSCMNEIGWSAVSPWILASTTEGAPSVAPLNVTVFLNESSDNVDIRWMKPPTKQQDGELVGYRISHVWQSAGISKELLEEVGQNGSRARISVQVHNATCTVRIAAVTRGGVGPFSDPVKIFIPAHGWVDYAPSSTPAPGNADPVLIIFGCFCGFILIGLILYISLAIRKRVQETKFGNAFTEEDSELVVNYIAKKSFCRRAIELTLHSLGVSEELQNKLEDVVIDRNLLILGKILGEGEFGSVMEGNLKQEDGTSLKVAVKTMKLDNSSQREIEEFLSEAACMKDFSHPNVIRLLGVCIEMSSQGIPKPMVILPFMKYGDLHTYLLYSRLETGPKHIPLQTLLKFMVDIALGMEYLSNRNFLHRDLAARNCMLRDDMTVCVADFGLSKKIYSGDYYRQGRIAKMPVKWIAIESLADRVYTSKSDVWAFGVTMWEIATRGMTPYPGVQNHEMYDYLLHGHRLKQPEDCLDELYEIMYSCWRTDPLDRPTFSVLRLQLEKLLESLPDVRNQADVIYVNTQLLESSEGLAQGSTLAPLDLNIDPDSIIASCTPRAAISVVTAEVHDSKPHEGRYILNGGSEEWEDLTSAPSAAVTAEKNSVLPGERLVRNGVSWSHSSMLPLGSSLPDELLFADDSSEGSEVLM

| Sequence | phosphorylation enrichment |
| --- | --- |
| GITTGYLVLKE [DNMT3B_Y588_A585T] | 0.334 |
| RIVEIYSRRLQ [GCH1_Y175] | 0.678 |
| VASMFYTLVIP [OR8K3_Y277_I275M] | 5.7 |
| RNNTEYVRDIG [MUSK_Y577_I575T] | 0.33 |
| EEHIPCTHMNG [INSR_Y1361_Y1361C] | 0.552 |
| QMRLKYSQSDL [SMC1A_Y714] | 0.296 |
| PDMHSYVVRFN [GRIN2D_Y732_M733V_YF] | 0.531 |
| FPIDHYLGKEM [G6PD_Y202_R198P_YF] | 0.391 |
| KGLMPYGQPRP [SRRT_Y798_Q793K] | 0.527 |
| LEAFQYIGESQ [MSH2_Y856_E853A] | 0.479 |
| FSDQVYRQHRK [TH_Y230_R233H] | 0.357 |
| ADRNHYRRYPR [YBX1_Y145] | 0.48 |
| EVRTQYEEIAQ [KRT76_Y361_A359T] | 0.395 |
| FLEKFYKFGSR [NNMT_Y25_YF] | 0.433 |
| FEPDAYFDLDQ [ELP5_Y302_D303Y_YF] | 0.477 |
| VVGMLYVGGLP [LAMA2_Y2886] | 0.449 |
| SVETPYVSVTF [NDRG2_Y47_G48V] | 0.47 |

| Sequence | phosphorylation enrichment |
| --- | --- |
| LLVVLYKYRCF [PSEN1_Y154_Y159F] | 0.626 |
| DTQNSYGCATS [TSC1_Y304] | 0.393 |
| AESPEYVHMFT [FAM111A_Y511_YF] | 0.407 |
| IKELTYQTEED [MYH7_Y1852] | 0.441 |
| SHLSAFPALEG [CD5_Y465_Y465F] | 0.347 |
| MPLTEYLKRIK [CNGB3_Y200] | 0.379 |
| SEEVTYATLTF [CLEC12B_Y7] | 2.18 |
| SSAAGYACLAF [MVD_Y131_YF] | 0.538 |
| LSNPAYRLLLA [DDR1_Y513] | 0.568 |
| TLLERYGMTEI [ACSF3_Y355] | 0.342 |
| CTTIHCNFMCN [TP53_Y234_Y234C_YF] | 0.441 |
| NCFKYYMSDDI [ATRX_Y204] | 0.562 |
| SECCKYKIDNL [OSMR_Y689_P694L] | 0.432 |
| PVGVLYEVKVF [PTS_Y128_K129E_YF] | 1.16 |
| KLKEKYQKDIA [HMGB1_Y155_E156Q] | 0.557 |
| AKVKPYINGTS [IBTK_Y1064_V1065I] | 0.358 |

Tested on: c-Abl (mouse)
Assay: as above

| Sequence | phosphorylation enrichment |
| --- | --- |
| GITTGYLVLKE [DNMT3B_Y588_A585T] | 0.389 |
| RIVEIYSRRLQ [GCH1_Y175] | 0.747 |
| VASMFYTLVIP [OR8K3_Y277_I275M] | 0.691 |
| RNNTEYVRDIG [MUSK_Y577_I575T] | 0.479 |
| EEHIPCTHMNG [INSR_Y1361_Y1361C] | 0.865 |
| QMRLKYSQSDL [SMC1A_Y714] | 0.632 |
| PDMHSYVVRFN [GRIN2D_Y732_M733V_YF] | 0.873 |
| FPIDHYLGKEM [G6PD_Y202_R198P_YF] | 0.524 |
| KGLMPYGQPRP [SRRT_Y798_Q793K] | 0.455 |
| LEAFQYIGESQ [MSH2_Y856_E853A] | 0.906 |
| FSDQVYRQHRK [TH_Y230_R233H] | 0.819 |
| ADRNHYRRYPR [YBX1_Y145] | 0.717 |
| EVRTQYEEIAQ [KRT76_Y361_A359T] | 0.899 |
| FLEKFYKFGSR [NNMT_Y25_YF] | 0.551 |
| FEPDAYFDLDQ [ELP5_Y302_D303Y_YF] | 0.91 |
| VVGMLYVGGLP [LAMA2_Y2886] | 0.742 |
| SVETPYVSVTF [NDRG2_Y47_G48V] | 0.844 |

| Sequence | phosphorylation enrichment |
| --- | --- |
| LLVVLYKYRCF [PSEN1_Y154_Y159F] | 2.02 |
| DTQNSYGCATS [TSC1_Y304] | 0.884 |
| AESPEYVHMFT [FAM111A_Y511_YF] | 0.703 |
| IKELTYQTEED [MYH7_Y1852] | 0.753 |
| SHLSAFPALEG [CD5_Y465_Y465F] | 0.407 |
| MPLTEYLKRIK [CNGB3_Y200] | 0.525 |
| SEEVTYATLTF [CLEC12B_Y7] | 5.98 |
| SSAAGYACLAF [MVD_Y131_YF] | 0.946 |
| LSNPAYRLLLA [DDR1_Y513] | 0.917 |
| TLLERYGMTEI [ACSF3_Y355] | 0.516 |
| CTTIHCNFMCN [TP53_Y234_Y234C_YF] | 0.629 |
| NCFKYYMSDDI [ATRX_Y204] | 1.17 |
| SECCKYKIDNL [OSMR_Y689_P694L] | 0.748 |
| PVGVLYEVKVF [PTS_Y128_K129E_YF] | 1.29 |
| KLKEKYQKDIA [HMGB1_Y155_E156Q] | 1.24 |
| AKVKPYINGTS [IBTK_Y1064_V1065I] | 0.404 |
